Results on 4 molecules are retold here after article PMC9482650, “Quantitative fragmentomics allow affinity mapping of interactomes” (Nature Communications, 2022).

Where a chain is given by its changes, count along the chain named.

Experiment in all cases: holdup assay
Holding throughout (design): key: below the threshold = too weak to quantify, mostly under pKd 3.1 to 4

The target of test [1] is Inadl_3, Q8NI35.
Test [2] has as its target T1, PDZD2_2, O15018.
T1 sequence (O15018 329-429, limits assumed, looked up): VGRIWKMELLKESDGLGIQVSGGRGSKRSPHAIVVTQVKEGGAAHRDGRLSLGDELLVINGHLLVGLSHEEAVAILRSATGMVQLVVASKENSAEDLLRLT

The target in test [3] is LNX1_3, Q8TBB1.
The target in test [4] is T2, FRMPD1, Q5SYB0.
T2 sequence (Q5SYB0 52-145, limits assumed, looked up): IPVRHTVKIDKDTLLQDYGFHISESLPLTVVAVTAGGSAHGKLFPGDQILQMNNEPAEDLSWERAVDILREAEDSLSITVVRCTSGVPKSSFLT

Test [5] addresses NHERF4_2, Q86UT5.
Test [6] concerns the target T3, MPDZ_10, O75970.
T3 sequence (O75970 1624-1722, limits assumed, looked up): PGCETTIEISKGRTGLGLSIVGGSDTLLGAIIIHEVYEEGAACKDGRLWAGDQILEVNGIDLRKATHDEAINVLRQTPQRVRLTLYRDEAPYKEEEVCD

Test [7] has as its target FRMPD2_1, Q68DX3.
Test [8] concerns the target T4, TX1BP3, O14907.
T4 sequence (O14907 10-122, limits assumed, looked up): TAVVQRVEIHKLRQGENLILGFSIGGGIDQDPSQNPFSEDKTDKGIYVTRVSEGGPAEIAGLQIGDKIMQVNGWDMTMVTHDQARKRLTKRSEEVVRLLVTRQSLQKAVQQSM

Test [9] has as its target IL16_1, Q14005.
In test [10] the target is T5, NHERF3_3, Q5T2W1.
T5 sequence (Q5T2W1 238-333, limits assumed, looked up): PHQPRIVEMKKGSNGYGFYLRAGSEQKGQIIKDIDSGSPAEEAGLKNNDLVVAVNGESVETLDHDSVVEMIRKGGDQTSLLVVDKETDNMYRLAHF

Test [11] deals with T6, APBA1_2, Q02410.
T6 sequence (Q02410 742-832, limits assumed, looked up): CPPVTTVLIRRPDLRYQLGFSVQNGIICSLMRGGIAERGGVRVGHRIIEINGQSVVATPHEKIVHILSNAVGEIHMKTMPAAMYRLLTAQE

For test [12], the target named is T7, MPP7, Q5T2T1.
T7 sequence (Q5T2T1 134-230, limits assumed, looked up): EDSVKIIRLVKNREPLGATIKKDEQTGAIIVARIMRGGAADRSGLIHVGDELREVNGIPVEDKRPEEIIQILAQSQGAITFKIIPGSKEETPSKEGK

The target in test [13] is T8, LNX2_3, Q8N448.
T8 sequence (Q8N448 463-564, limits assumed, looked up): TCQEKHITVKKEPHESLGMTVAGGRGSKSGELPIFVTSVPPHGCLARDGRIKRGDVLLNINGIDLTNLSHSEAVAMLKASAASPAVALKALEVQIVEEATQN

The target in test [14] is T9, APBA2_2, Q99767.
T9 sequence (Q99767 654-744, limits assumed, looked up): T6 sequence (Q02410 742-832, limits assumed, looked up) with R10K, R15K, P59A, H65Q, I66A, A70S, Y84F, A89G

Test [15] deals with T10, DFNB31_2, Q9P202.
T10 sequence (Q9P202 274-371, limits assumed, looked up): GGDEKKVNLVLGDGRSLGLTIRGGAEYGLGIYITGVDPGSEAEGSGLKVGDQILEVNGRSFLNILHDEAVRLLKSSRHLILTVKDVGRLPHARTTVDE

Test [16] deals with NHERF4_4, Q86UT5.
Test [17] addresses T11, CARD11, Q9BXL7.
T11 sequence (Q9BXL7 662-765, limits assumed, looked up): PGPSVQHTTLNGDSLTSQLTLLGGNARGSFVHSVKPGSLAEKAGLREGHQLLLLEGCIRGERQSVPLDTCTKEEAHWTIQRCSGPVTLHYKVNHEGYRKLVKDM

In test [18] the target is LAP2, Q96RT1.
Test [19] has as its target LIMK2, P53671.
Test [20] concerns the target T12, NHERF3_4, Q5T2W1.
T12 sequence (Q5T2W1 373-468, limits assumed, looked up): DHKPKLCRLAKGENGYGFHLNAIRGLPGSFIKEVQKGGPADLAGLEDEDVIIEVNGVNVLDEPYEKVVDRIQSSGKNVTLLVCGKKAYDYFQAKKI

Test [21] deals with T13, SHANK1, Q9Y566.
T13 sequence (Q9Y566 658-767, limits assumed, looked up): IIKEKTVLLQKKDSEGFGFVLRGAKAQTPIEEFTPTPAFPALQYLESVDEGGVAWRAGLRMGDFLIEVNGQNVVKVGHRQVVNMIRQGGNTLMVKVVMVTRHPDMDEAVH

Test [22] addresses DLG4_2, P78352.
Test [23] addresses T14, MPP6, Q9NZW5.
T14 sequence (Q9NZW5 125-219, limits assumed, looked up): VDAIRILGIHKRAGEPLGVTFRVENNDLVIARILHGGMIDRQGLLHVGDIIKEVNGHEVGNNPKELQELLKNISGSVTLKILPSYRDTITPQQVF

Where [24] appears, read: plain residues with an end cap or a label only (N-terminal biotin on a linker: ttds).
[25] abbreviates: plain residues with an end cap or a label only (N-terminal biotin on a linker: gsgsgs; C-terminal amide).
Where [26] appears, read: plain residues with an end cap or a label only (N-terminal biotin on a linker: ahx).

Chain of LIMK2, P53671 (P53671 143-248): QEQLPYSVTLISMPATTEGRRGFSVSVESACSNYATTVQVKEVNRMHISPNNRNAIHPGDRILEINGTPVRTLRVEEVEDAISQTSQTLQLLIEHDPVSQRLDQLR
Chain of DLG4_2, P78352 (P78352 155-259): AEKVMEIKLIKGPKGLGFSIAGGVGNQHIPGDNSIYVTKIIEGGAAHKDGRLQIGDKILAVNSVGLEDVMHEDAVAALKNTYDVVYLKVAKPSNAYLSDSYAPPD
Chain of LAP2, Q96RT1 (Q96RT1 other isoform, or with tags, fused parts or gaps): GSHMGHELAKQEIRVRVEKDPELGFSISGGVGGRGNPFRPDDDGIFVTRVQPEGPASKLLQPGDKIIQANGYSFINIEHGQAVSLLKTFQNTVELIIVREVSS
Chain of NHERF4_2, Q86UT5 (Q86UT5 220-308): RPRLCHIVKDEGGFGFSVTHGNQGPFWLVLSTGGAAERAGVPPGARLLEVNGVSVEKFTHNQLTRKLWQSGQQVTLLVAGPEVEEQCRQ
Chain of Inadl_3, Q8NI35 (Q8NI35 359-469): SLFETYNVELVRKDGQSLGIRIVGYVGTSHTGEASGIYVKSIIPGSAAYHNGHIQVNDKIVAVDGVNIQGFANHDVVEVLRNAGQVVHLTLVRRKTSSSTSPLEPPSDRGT
Chain of LNX1_3, Q8TBB1 (Q8TBB1 500-596): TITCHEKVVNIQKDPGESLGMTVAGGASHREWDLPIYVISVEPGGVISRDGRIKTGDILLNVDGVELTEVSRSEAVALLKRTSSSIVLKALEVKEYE
Chain of NHERF4_4, Q86UT5 (Q86UT5 464-550): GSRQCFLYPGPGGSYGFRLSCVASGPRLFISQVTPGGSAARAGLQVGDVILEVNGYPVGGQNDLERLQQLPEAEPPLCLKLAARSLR
Chain of FRMPD2_1, Q68DX3 (Q68DX3 770-861): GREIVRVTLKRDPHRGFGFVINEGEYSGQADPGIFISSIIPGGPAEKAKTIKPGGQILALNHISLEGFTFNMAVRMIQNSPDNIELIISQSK
Chain of IL16_1, Q14005 (Q14005 210-306): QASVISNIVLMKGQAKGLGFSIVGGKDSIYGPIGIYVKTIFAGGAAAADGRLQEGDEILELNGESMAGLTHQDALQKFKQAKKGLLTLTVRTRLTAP

Regarding RPLPRKVSQL [DOCK4, Q8N1I0], the pKd result in test [1] (setting [24]), in [2] (setting [24]), in test [3] (setting [24]), in test [4] (setting [24]), in test [5] (setting [24]) and in test [6] (setting [24]) was “below the threshold” throughout. Besides, the pKd – broadly, −log10 of the Kd, conventionally taken in molar units – in test [7] (setting [24]) is “below the threshold”; in [8] (setting [24]), 4.41; in [9] (setting [24]) it was “below the threshold”; in test [10] (setting [24]), “below the threshold”; in test [11] (setting [24]), 3.97; in test [12] (setting [24]), “below the threshold”. In addition, the pKd entry in test [13] (setting [24]) is “below the threshold”; in test [14] (setting [24]), “below the threshold”; in [15] (setting [24]) it was “below the threshold”; in test [16] (setting [24]), “below the threshold”; in test [17] (setting [24]) it was “below the threshold”; in test [18] (setting [24]), 3.73. In addition, the pKd entry in [19] (setting [24]), in test [20] (setting [24]), in [21] (setting [24]), in test [22] (setting [24]) and in test [23] (setting [24]) was “below the threshold” throughout.

As for YGIVQETTFDLGGDIH [MLLT4_int, P55196], the negative-log Kd (pKd) result in test [1] (setting [25]), in test [2] (setting [25]), in [3] (setting [25]), in [4] (setting [25]), in test [5] (setting [25]) and in test [6] (setting [25]) was “below the threshold” each time. Moreover, the pKd entry in [7] (setting [25]) is “below the threshold”; in test [8] (setting [25]) it was 3.83; in [9] (setting [25]), “below the threshold”; in test [10] (setting [25]), “below the threshold”; in [11] (setting [25]), “below the threshold”; in test [12] (setting [25]), “below the threshold”. For the same molecule, the negative-log Kd (pKd) result in test [13] (setting [25]) is “below the threshold”; in test [14] (setting [25]), “below the threshold”; in test [15] (setting [25]), “below the threshold”; in [16] (setting [25]) it was 3.84; in test [17] (setting [25]) it was “below the threshold”; in test [18] (setting [25]), “below the threshold”. Besides, the pKd entry in [19] (setting [25]), in test [20] (setting [25]), in test [21] (setting [25]), in test [22] (setting [25]) and in test [23] (setting [25]) was “below the threshold” throughout.

With RRRKRKRTYL [HPV49-L2, P36762], the negative-log Kd (pKd) was 3.72 in test [1] (setting [26]); 3.8 in test [2] (setting [26]); “below the threshold” in [3] (setting [26]); “below the threshold” in test [4] (setting [26]); “below the threshold” in test [5] (setting [26]); 3.94 in test [6] (setting [26]). The pKd is 3.78 in test [7] (setting [26]); 3.48 in test [8] (setting [26]); “below the threshold” in test [9] (setting [26]); 4.18 in test [10] (setting [26]); 3.98 in [11] (setting [26]); “below the threshold” in test [12] (setting [26]). Also, the pKd entry in test [13] (setting [26]) is “below the threshold”; in test [14] (setting [26]), “below the threshold”; in test [15] (setting [26]), “below the threshold”; in test [16] (setting [26]), 3.53; in [17] (setting [26]), “below the threshold”; in test [18] (setting [26]), “below the threshold”. Besides, the pKd result in test [19] (setting [26]) was “below the threshold”; in [20] (setting [26]), 4; in test [21] (setting [26]) it was 4.32; in test [22] (setting [26]) it was “below the threshold”; in test [23] (setting [26]), “below the threshold”.

Regarding RAVEEEESRF [PSCDBP, O60759], the pKd result in test [1] (setting [26]), in test [2] (setting [26]), in [3] (setting [26]), in test [4] (setting [26]), in test [5] (setting [26]) and in [6] (setting [26]) was “below the threshold” throughout. Also, the pKd entry in test [7] (setting [26]), in test [8] (setting [26]), in test [9] (setting [26]), in test [10] (setting [26]), in test [11] (setting [26]) and in test [12] (setting [26]) was “below the threshold” in each case. Besides, the negative logarithm of the Kd (pKd) entry in [13] (setting [26]), in [14] (setting [26]), in test [15] (setting [26]), in test [16] (setting [26]), in test [17] (setting [26]) and in [18] (setting [26]) was “below the threshold” in each case. Also, the pKd entry is “below the threshold” in [19] (setting [26]); “below the threshold” in test [20] (setting [26]); 4.77 in test [21] (setting [26]); “below the threshold” in [22] (setting [26]); “below the threshold” in test [23] (setting [26]).
